According to patent EP4796681A2 (Daiichi Sankyo Co., Ltd., dated 2026):

What was measured:
[1] = target: T1, Chymotrypsin (Worthington Biochemical Corp.) (Bos taurus (Bovine), UniProt P00766 1-13; P00766 16-146; P00766 149-245); test: cell-based or functional assay
[2] = target: T1, Chymotrypsin (Worthington Biochemical …); test: ELISA, chymotrypsin coated on plate, detection by HRP-conjugated S-Tag antibody

B1: α-chymotrypsin-binding peptide No. 6 (SPINK2 mutant) (designed binder)
chain: DPQFGLFSKYRTPNCRRWLLPWCTYKYKPVCGSDMSTYANECTLCMKIREGGHNIKIIRNGPC
notes: Expressed in E. coli Origami B (DE3) as thioredoxin/His fusion, thioredoxin tag cleaved by thrombin; mainly monomer; also called clone 6; not shown: vector-derived N-terminal residues left after thrombin cleavage of the pET 32a (varied) fusion, including the S-tag used
[1]
  IC50 of chymotrypsin inhibitory activity (Pierce Quantitative Protease Assay Kit): 374 nM
[2]
  EC50: 17.8 nM

B2: α-chymotrypsin-binding peptide No. 2 (SPINK2 mutant) (designed binder)
chain: DPQFGLFSKYRTPNCMRHRRHFCTMVYKPVCGSDMSTYANECTLCMKIREGGHNIKIIRNGPC
notes: Expressed in E. coli Origami B (DE3) as thioredoxin/His fusion, thioredoxin tag cleaved by thrombin; mainly monomer; also called clone 2; not shown: vector-derived N-terminal residues left after thrombin cleavage of the pET 32a (varied) fusion, including the S-tag used
[1]
  IC50 of chymotrypsin inhibitory activity (Pierce Quantitative Protease Assay Kit): 815 nM
[2]
  EC50: 18.3 nM
